Results as given in US20210395357A1 (IPHASE PHARMA SERVICE, published 2021).

Experiments:
[1] = biological target: T1, rhIL-6-His (recombinant human IL-6, Val30 to Met212, C-terminal 6 His) (human, UniProt P05231 30-212); experiment: ELISA, rhIL-6-His coated at 1 µg/ml, anti-human IgG-HRP
Procedure: The rhIL-6-His antigen was diluted with PBS (pH=8.6) to 1 μg/ml, added to a microtiter plate at 100 μl/well, coated overnight at 4° C., and blocked at 37° C. for 2 hour by adding 300 μl/well of 3% BSA after washing the plate 4 times with PBST. […] The plate was washed for 4 times with PBST, added with HRP (horseradish peroxidase) labeled goat anti-human IgG antibody (ProteinTech, SA00001-1), and incubated at 37° C. for 1 hour. The plate was washed for 4 times with PBST, added with 100 μl/well of TMB color-developing solution (Zuman Bio, ZD311), and incubated at 37° C. for 15 minutes; after color development, 50 μl/well of stop solution (1M sulfuric acid) was added, and the absorbance value at 450 nm wavelength was measured on the microplate reader (BioTek, ELx808).

[2] = biological target: T1, rhIL-6-His (recombinant human IL-6, …); experiment: cell-based or functional assay
[3] = biological target: T1, rhIL-6-His (recombinant human IL-6, …); experiment: competition ELISA: antibody pre-incubated with rhIL-6-His, binding to coated rhIL-6R detected with anti-His-HRP
Procedure: The rhIL-6R (Sino Biological, 10398-H02H) antigen was diluted with PBS (pH=8.6) to 1.5 μg/ml, added to a microtiter plate A at 100 μl/well, coated overnight at 4° C., and blocked at 37° C. for 2 hour by adding 300 μl/well of 3% BSA after washing the plate for 4 times with PBST. […] The plate A was washed once with PBST, added with the mixture in plate B, and incubated at 37° C. for 1 hour. The plate A was washed for 4 times with PBST, added with 100 μl/well of HRP (horseradish peroxidase) labeled anti-His antibody (ProteinTech, HRP-66005), and incubated at 37° C. for 1 hour. The plate was washed for 4 times with PBST, added with 100 μl/well of TMB color-developing solution (Zuman Bio, ZD311), and incubated at 37° C. for 15 minutes for color development; 50 μl/well of stop solution (1M sulfuric acid) was added, and the absorbance value at 450 nm wavelength was measured on the microplate reader (BioTek, ELx808).

[4] = biological target: T1, rhIL-6-His (recombinant human IL-6, …); experiment: BLI, ForteBio Blitz

T1 sequence (P05231 other isoform, or with tags, fused parts or gaps limits assumed): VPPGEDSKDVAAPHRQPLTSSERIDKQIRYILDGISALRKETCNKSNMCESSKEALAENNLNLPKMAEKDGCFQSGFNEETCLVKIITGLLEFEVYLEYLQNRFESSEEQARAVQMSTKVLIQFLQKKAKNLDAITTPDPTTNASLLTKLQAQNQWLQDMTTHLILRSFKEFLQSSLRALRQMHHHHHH

| Binder | EC50 [1] [µg/mL] | concentration of SAA in supernatant of rhIL-6 stimulated HepG2 cells at 100 µg/mL antibody [2] [ng/mL] | concentration that inhibits IL-6-stimulated phosphorylation of p-Stat3 (Tyr705) in DLD-1 cells, Western blot [2] [µg/mL] | IC50 [3] [µg/mL] | kon [4] [M⁻¹ s⁻¹] |
| --- | --- | --- | --- | --- | --- |
| HZ-0408d (antibody, human IgG1, kappa, V domains shown, Humanized from murine 140-4; IgG1 type antibody from 293F cells; also called L3/H3) VH: QVTLKESGPVLVKPTETLTLTCTVSGFSLSTSGMGVGWIRQPPGKALEWLAHIWWDDDKRYNSALKSRLTISKDTSKSQVVLTMTNMDPVDTATYYCARIGGLYVDYLMDYWGQGTLVTVSS VL: DIQMTQSPSSLSASVGDRVTITCRASQSISDYLHWYQQKPGKAPKLLIYYASQSISGVPSRFSGSGSGTDFTLTISSLQPEDFATYYCQNGHSFPWTFGQGTKVEIKR | 0.39 | 85 | 32 | 3.04 | 93200 |
| HZ-0408c (antibody, human IgG1, kappa, V domains shown, Humanized from murine 140-4; IgG1 type antibody from 293F cells; also called L2/H3) VH: QVTLKESGPVLVKPTETLTLTCTVSGFSLSTSGMGVGWIRQPPGKALEWLAHIWWDDDKRYNSALKSRLTISKDTSKSQVVLTMTNMDPVDTATYYCARIGGLYVDYLMDYWGQGTLVTVSS VL: EIVLTQSPATLSLSPGERATLSCRASQSISDYLHWYQQKPGQAPRLLIYYASQSISGIPARFSGSGSGTDFTLTISSLEPEDFAVYYCQNGHSFPWTFGQGTKVEIKR | 0.18 | 12.5 | 8 | 1.29 | 74300 |
| HZ-0408a (antibody, human IgG1, kappa, V domains shown, Humanized from murine 140-4; expressed in 293F cells and captured on Protein A as an IgG1 type antibody; also called L1/H2) VH: QVTLKESGPALVKPTQTLTLTCTFSGFSLSTSGMGVGWIRQPPGKALEWLAHIWWDDDKRYNSALKSRLTISKDTSKNQVVLTMTNMDPVDTATYYCARIGGLYVDYLMDYWGQGTLVTVSS VL: EIVLTQSPDFQSVTPKEKVTITCRASQSISDYLHWYQQKPDQSPKLLIKYASQSISGVPSRFSGSGSGTDFTLTINSLEAEDAATYYCQNGHSFPWTFGQGTKVEIKR | 0.16 | 30.5 | 2 | 0.72 | 128000 |
| HZ-0408b (antibody, human IgG1, kappa, V domains shown, Humanized from murine 140-4; IgG1 type antibody from 293F cells; also called L1/H3) VH: QVTLKESGPVLVKPTETLTLTCTVSGFSLSTSGMGVGWIRQPPGKALEWLAHIWWDDDKRYNSALKSRLTISKDTSKSQVVLTMTNMDPVDTATYYCARIGGLYVDYLMDYWGQGTLVTVSS VL: EIVLTQSPDFQSVTPKEKVTITCRASQSISDYLHWYQQKPDQSPKLLIKYASQSISGVPSRFSGSGSGTDFTLTINSLEAEDAATYYCQNGHSFPWTFGQGTKVEIKR | 0.09 | -2.5 | 2 | 0.53 | 233000 |
| Siltuximab (antibody, V domains shown) VH: EVQLVESGGKLLKPGGSLKLSCAASGFTFSSFAMSWFRQSPEKRLEWVAEISSGGSYTYYPDTVTGRFTISRDNAKNTLYLEMSSLRSEDTAMYYCARGLWGYYALDYWGQGTSVTVSS VL: QIVLIQSPAIMSASPGEKVTMTCSASSSVSYMYWYQQKPGSSPRLLIYDTSNLASGVPVRFSGSGSGTSYSLTISRMEAEDAATYYCQQWSGYPYTFGGGTKLEIK | 67.3 | 148 | 64 | 12.5 | 28900 |
